Test results published in US20230355533A1, “BIODEGRADABLE POLYCAPROLACTONE CAPSULE FOR ANTIBODY RELEASE AND DEGRADATION” (University Of Cincinnati, priority 2022, published 2023).

Experiments:
[1] = Bev permeability across PCL membrane, vertical permeability column; assay type: physicochemical; details: 0.05 PEG PCL membrane, donor 50 mg/mL, area 0.78 cm^2
Description: The permeability experiments were conducted using a vertical permeability column. The donor side was filled with 200 μL of 50 mg/mL Bev solution and the receiver side was filled with 5 mL of PBS. […] The membranes were soaked in DI water for 24 h to remove the PEG and then placed in the column without drying. Once the membrane was securely placed between the donor and receiver sections, 200 μL of the donor solution was loaded and then the opening was sealed off to reduce evaporation altering the concentration of the donor and receiver solutions. 500 μL of the receiver and 10 μL of the donor solution were removed every 72 h to check the concentration using UV-Vis. The removed solutions were replaced by fresh PBS for the receiver solution and the donor was replaced by fresh donor solution or completely replaced depending on the remaining concentration.
After 12 days, the mass of Bev that permeated the membrane was plotted against time to get dQ/dt in the equation: […]
where Ci is the initial concentration (donor solution concentration), P is the permeability coefficient, and A is the area of the exposed membrane.

[2] = Bev drug release kinetics model (cylindrical reservoir); details: calculated from Stokes-Einstein diffusion coefficient and hindrance factor
Excerpt: The equation used to model the release profile is
where Mt is the mass released at time t, M∞, is the mass loaded in the implant, Ri is the inner radius of the implant, Ro is outer radius of the implant, De is the effective diffusivity, K is the partition coefficient, and L is the length of the implant. This equation models Fick's law of diffusion of molecules from the lumen of a cylindrical implant through a membrane wall. Ro, Ri, and L can all be measured from the implants, but De and K must be determined experimentally or calculated from other parameters that can be determined experimentally to create this model. K may be determined experimentally, as described herein. To find De, permeability, Stokes-Einstein diffusion, hindrance factor for diffusion, hindrance factor, and the restrictive factor all were determined experimentally or calculated.
The permeability of Bev across the PCL membrane can be described by […]
where kB is the Boltzmann constant, T is the temperature in Kelvin, η is the viscosity of water at 25° C., and r is the hydrodynamic radius of Bev. The overall hindrance factor for diffusion, H, is expressed as: […]
where λ is the ratio of permeant radius to pore radius and Kt, the hinderance factor, is calculated by: […]
The last value that needs to be determined for Equation 3 is effective diffusivity (De). De can be determined from the equation: […]

[3] = Bev partition coefficient in PCL membrane; assay type: physicochemical; details: equilibrium solution of 20 mg/mL
Description: The partition coefficient K is required for the release kinetics model equation. […] The membranes were soaked in 200 μL of PBS for 48 h. After 48 h the membranes were blotted with a Kimwipe to remove surface liquid and then weighed to determine the wet mass of the membrane. The membranes were then dried overnight in a chemical hood. The dry membranes were then placed in 200 μL of an equilibrium Bev solution for 72 h to allow the membranes to absorb the Bev from the solution. After 72 h the membranes were removed from the equilibrium, blotted, and placed in 200 μL of fresh PBS to extract Bev for 48 h. This extraction process was repeated until the amount extracted was 10% of the first extraction. The remaining equilibrium solution and all extraction solutions were analyzed using UV-Vis to determine the Bev concentration. The partition coefficient was then determined using the equation below.
where Me is the total mass extracted, W is the wet mass of the membrane, Meq is the amount of Bev left in the equilibrium solution, V is the volume of water left in the equilibrium solution, and ρ is the density of the solution.

[4] = system: TNF-α stimulated HUVECs; experiment: IL-6 ELISA assay; assay type: cell-based, Human; details: Dex 33 μM, 24 h pretreatment, then 20 ng/mL TNF-α 24 h
Description: Human primary umbilical vein endothelial cells (HUVECs) were maintained in EBMTM-2 Basal Medium and EGMTM-2 SingleQuots™ Supplements (Lonza, Switzerland). HUVECs were grown in the cell incubator containing 5% CO2 at 37° C. When the cells were grown to 90% confluence, they were inoculated in 24-well plates. Briefly, 0.4 mL of HUVECs suspensions (8×104 HUVECs per well) were seeded in 24-well plates and incubated at 37° C, 5% CO2 for 24 h. […] After 24 h, all the conditions except the medium only were incubated with 20 ng/mL TNF-α for 24 h. […] At the end of experiments, the cell medium was collected and centrifuged at 2,000×g for 10 min to remove the particulate/debris materials. Then, supernatant was collected and stored at −20° C. until used. Each sample was pre-diluted using a standard dilution buffer to keep the sample concentrations within the range of standard curve. The concentration of pro-inflammatory cytokine (IL-6) in the cell culture supernatant was analyzed by the ELISA assay according to the manufacturer's recommendation (Invitrogen® human IL-6 ELISA kit). All tests were done in triplicate.

Which results are given for Bevacizumab?
Bev permeated across the membrane [1]: 42.5 µg/day; effective diffusion coefficient De [2]: 5.59 × 10^−6 cm^2/day; partition coefficient K [3]: 0.515

With “Dexamethasone sodium phosphate [free Dex]” as the substance, how does the “IL-6 level in cell culture medium compared to TNF-α stimulated HUVECs (condition 2)” value [4] read?
The value was “not significantly decreased”.
